# Laboratory results: patent publication US20020039999A1
# Molecular target: opioid receptors of rat brain homogenate ([3H]-Naloxone binding sites)
# Experiment: [3H]-Naloxone (1.0 nM) displacement, rat brain homogenate, filtration
% inhibition at 0.1 nM [%],% inhibition at 10 nM [%],% inhibition at 1000 nM [%],Substance
-3.21,4.87,12.7,Dynorphin A 2-17-NH2 (peptide)
1.66,-0.19,44.1,Dynorphin A 2-13-NH2 (peptide)
2.76,9.89,91.8,Dynorphin A 1-13-NH2 (peptide)
-0.6,,,Human serum albumin (HSA) (from UniProt P02768 25-609)
